The text below walks through data of patent US20070276125A1.

The target in assay [1] is FcγIII. Description: reverse ELISA: rabbit PAP on FcγIII-coated plate, no inhibitor.
In assay [2] the target is myelin basic protein (MBP, Sigma). Description: reverse ELISA: rabbit PAP on MBP-coated plate, no inhibitor.
The target of assay [3] is FcγIIa. Description: reverse ELISA: PAP on FcγIIa-coated plate, no inhibitor.
Assay [4] addresses FcγIIb. The assay is described as follows: reverse ELISA: rabbit PAP on FcγIIb-coated plate, no inhibitor.
Assay [5] addresses Histone (Sigma). Description: reverse ELISA: binding of histones to IgG PAP immune complexes, no inhibitor.
Assay [6] deals with myelin basic protein (MBP, Sigma). Description: reverse ELISA: binding of MBP to IgG PAP immune complexes, no inhibitor.
Assay [7] addresses Histone (Sigma). Description: reverse ELISA: rabbit PAP on histone-coated plate, no inhibitor.
For assay [8], the target named is FcγIII. Description: reverse ELISA: PAP on FcγIII-coated plate, no inhibitor.
Assay [9] addresses human C1q (human) (UniProt P02745). Description: reverse ELISA: rabbit PAP on C1q-coated plate, no inhibitor.
The target is the same in assay [10]. The assay is described as follows: reverse ELISA: PAP on C1q-coated plate, no inhibitor.
The target of assay [11] is FcγIIa. Description: reverse ELISA: rabbit PAP on FcγIIa-coated plate, no inhibitor.
The next assay concerns the target whole human IgG4. Description: reverse ELISA: immune complexes on IgG4-coated plate, no inhibitor.
Assay [12] deals with FcγIIb. Description: reverse ELISA: PAP on FcγIIb-coated plate, no inhibitor.
FcγIIb, sequence (P31994 43-217): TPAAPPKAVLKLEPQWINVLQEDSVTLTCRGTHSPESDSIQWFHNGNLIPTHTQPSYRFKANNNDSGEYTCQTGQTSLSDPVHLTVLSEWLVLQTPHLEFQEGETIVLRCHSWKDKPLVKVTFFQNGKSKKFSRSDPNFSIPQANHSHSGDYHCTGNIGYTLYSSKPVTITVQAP
Assay [13] addresses peroxidase-anti-peroxidase (PAP) immune complex (preformed immune complex of peroxidase and anti-peroxidase IgG). Description: reverse ELISA, competition: soluble histone pre-incubated with rabbit PAP, then histone-coated plate; lower = more inhibition.
For assay [14] the target is unchanged. Description: reverse ELISA, competition: soluble MBP pre-incubated with rabbit PAP, then MBP-coated plate; lower = more inhibition.
For assay [15] the target is unchanged. The assay is described as follows: reverse ELISA, competition: pre-incubated with PAP, then FcγIIb-coated plate (competitor: FcγIIb); lower = more inhibition.
For assay [16] the target is unchanged. Description: reverse ELISA, competition: pre-incubated with PAP, then FcγIII-coated plate (competitor: FcγIII); lower = more inhibition.
Assay [17] shares this target. The assay is described as follows: reverse ELISA, competition: pre-incubated with PAP, then FcγIIa-coated plate (competitor: FcγIIa); lower = more inhibition.
Assay [18] shares this target. The assay is described as follows: reverse ELISA, competition: pre-incubated with rabbit PAP, then MBP-coated plate (competitor: MBP); lower = more inhibition.
In assay [19] the target is human monomeric IgG (Research Diagnostics). The assay is described as follows: RF test, competition: peptide pre-incubated with human monomeric IgG, washed, then 200 I.U. RF (competitor); OD = RF bound, lower = more inhibition.
In assay [20] the target is peroxidase-anti-peroxidase (PAP) immune complex (preformed immune complex of peroxidase and anti-peroxidase IgG). The assay is described as follows: reverse ELISA, competition: pre-incubated with PAP, then RF-coated plate (competitor: RF); lower = more inhibition.
For assay [21] the target is unchanged. Description: reverse ELISA, competition: pre-incubated with rabbit PAP, then histone-coated plate (competitor: histone); lower = more inhibition.
Assay [22] shares this target. The assay is described as follows: reverse ELISA, competition: peptide with immune complexes, IgG4-coated plate (competitor: IgG4); lower = more inhibition.
Assay [23] shares this target. The assay is described as follows: reverse ELISA, competition: pre-incubated with PAP, then C1q-coated plate (competitor: C1q); OD = PAP bound, lower = more inhibition.
Assay [24] shares this target. Description: reverse ELISA, competition: pre-incubated with rabbit PAP, then FcγIIb-coated plate (competitor: FcγIIb); lower = more inhibition.
The target is the same in assay [25]. The assay is described as follows: reverse ELISA, competition: pre-incubated with rabbit PAP, then RF-coated plate (competitor: RF); lower = more inhibition.
Assay [26] has the same target. Description: reverse ELISA, competition: pre-incubated with rabbit PAP, then FcγIII-coated plate (competitor: FcγIII); lower = more inhibition.
The target of assay [27] is human monomeric IgG (Research Diagnostics). Description: RF test, competition: peptide pre-incubated 1 hour with human monomeric IgG, washed, then 200 I.U. RF (competitor); OD = RF bound, lower = more inhibition.
Assay [28] concerns the target peroxidase-anti-peroxidase (PAP) immune complex (preformed immune complex of peroxidase and anti-peroxidase IgG). The assay is described as follows: reverse ELISA, competition: pre-incubated with rabbit PAP, then C1q-coated plate (competitor: C1q); lower = more inhibition.
Assay [29] has the same target. Description: reverse ELISA, competition: pre-incubated with rabbit PAP, then FcγIIa-coated plate (competitor: FcγIIa); lower = more inhibition.

Positions of bridges follow the written chain, without caps; N, C: chain ends. No end group written: not given here.

human C1q (human), sequence (P02745 23-245 limits assumed, chain 1 of 3): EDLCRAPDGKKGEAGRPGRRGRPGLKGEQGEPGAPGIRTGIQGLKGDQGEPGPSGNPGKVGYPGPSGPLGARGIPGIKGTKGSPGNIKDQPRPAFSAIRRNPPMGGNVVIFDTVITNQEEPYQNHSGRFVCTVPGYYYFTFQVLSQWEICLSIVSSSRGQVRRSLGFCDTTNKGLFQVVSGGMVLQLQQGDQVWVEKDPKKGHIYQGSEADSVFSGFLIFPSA
human C1q (human), sequence (P02746 28-253 limits assumed, chain 2 of 3, further chain): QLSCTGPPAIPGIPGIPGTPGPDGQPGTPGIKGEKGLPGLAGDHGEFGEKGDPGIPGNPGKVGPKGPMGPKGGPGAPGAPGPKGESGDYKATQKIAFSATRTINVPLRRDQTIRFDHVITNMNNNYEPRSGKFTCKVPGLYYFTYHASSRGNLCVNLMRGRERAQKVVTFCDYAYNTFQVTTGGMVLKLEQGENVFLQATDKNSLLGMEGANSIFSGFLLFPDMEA
human C1q (human), sequence (P02747 29-245 limits assumed, chain 3 of 3, further chain): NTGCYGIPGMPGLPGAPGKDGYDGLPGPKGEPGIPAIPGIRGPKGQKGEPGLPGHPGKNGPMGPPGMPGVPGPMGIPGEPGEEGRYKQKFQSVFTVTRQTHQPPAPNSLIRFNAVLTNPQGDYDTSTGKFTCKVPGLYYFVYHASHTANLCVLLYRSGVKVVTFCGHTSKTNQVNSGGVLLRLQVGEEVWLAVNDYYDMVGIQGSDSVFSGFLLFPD
FcγIIa, sequence (P12318 34-217): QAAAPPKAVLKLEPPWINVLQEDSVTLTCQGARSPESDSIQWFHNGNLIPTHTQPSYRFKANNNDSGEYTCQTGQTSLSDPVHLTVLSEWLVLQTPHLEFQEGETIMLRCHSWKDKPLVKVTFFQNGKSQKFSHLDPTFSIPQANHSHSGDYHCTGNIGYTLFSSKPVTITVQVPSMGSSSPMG

For “peroxidase-anti-peroxidase (PAP) immune complex (preformed immune complex of peroxidase and anti-peroxidase IgG)”, the OD 405 nm is 1.59 OD with FcγIII [1]; 1.03 OD in assay [2]; 1.39 OD with FcγIIb [4]; 2.11 OD in the assay with Histone (Sigma) [5]; 2.34 OD in assay [6]; 1.27 OD in the assay with Histone (Sigma) [7]. The OD 405 nm stood at 2.35 OD with human C1q (human) [9], 0.467 OD with human C1q (human) [10], 1.6 OD with FcγIIa [11] and 0.716 OD in the assay with whole human IgG4. The OD 450 nm with FcγIIa [3], with FcγIII [8] and with FcγIIb [12] was 3.6 OD each time.
Regarding Histone (Sigma), the OD 405 nm in assay [13] was 0.057 OD.
In [14], myelin basic protein (MBP, Sigma) displayed an OD 405 nm of 0.139 OD.
Consider DCAWHLGELAACT (cyclized by a disulfide bond between the two cysteine residues) [… peptide (SEQ ID NO:42)], for which the OD 450 nm in [15] was found to be 1.07 OD; in [16] it was 1.34 OD; in assay [17], 1.48 OD. The OD 405 nm in [18] was found to be 0.706 OD; in assay [19], 1.4 OD; in [20] it was 0.622 OD; in [21], 0.729 OD; in assay [22], 0.557 OD.
Take DCAAHLGELAACT (cyclized by a disulfide bond between the two cysteine residues) [… peptide (SEQ ID NO:40)]: the OD 450 nm is 2.26 OD in assay [15], 2.41 OD in [16] and 2.43 OD in [17]. In addition, the results for the OD 405 nm in [23] and in assay [19] were 0.458 OD and 1.42 OD, respectively.
As to PCARHLGELVWCT (disulfide 2-12 (inferred)) [… peptide (SEQ ID NO:41)], the OD 450 nm in assay [15] was 1.21 OD; in assay [16], 1.6 OD; in assay [17], 1.15 OD. In addition, the OD 405 nm in [23] came out at 0.205 OD; in [18], 0.489 OD; in assay [19] it was 1.32 OD; in assay [20], 0.106 OD; in assay [21] it was 0.444 OD; in [22], 0.129 OD.
DCAFHLGELVWCT (cyclized by a disulfide bond between the two cysteine residues) [… peptide (SEQ ID NO:3)]: the OD 405 nm in assay [24] was 0.51 OD; in [25], 0.267 OD; in [26], 0.81 OD; in assay [27] it was 0.962 OD; in assay [28] it was 0.859 OD; in assay [29], 0.66 OD.
With DCARHLGELVWCT (disulfide 2-12 (inferred)) [… peptide (SEQ ID NO:4)], the OD 450 nm in assay [15] turned out to be 1.95 OD; in [16], 2.53 OD; in assay [17], 2.54 OD. Besides, the OD 405 nm stood at 0.193 OD in [23]; 0.473 OD in assay [18]; 1.23 OD in assay [19]; 0.109 OD in assay [20]; 0.363 OD in [21]; 0.096 OD in [22].
Molecule APPDCARHLGELVWCT (cyclized by a disulfide bond between the two cysteine residues) [… peptide (printed in Table 8 with SEQ ID NO:14)] registered an OD 405 nm in [22] of 0.107 OD.
In the case of RCARHLGELVWCT (disulfide 2-12 (inferred)) [… peptide (SEQ ID NO:5)], the results for the OD 450 nm in [15], in assay [16] and in assay [17] were 3.28 OD, 3.5 OD and 3.4 OD, respectively. Also, the OD 405 nm is 0.247 OD in [23]; 0.569 OD in [18]; 1.31 OD in assay [19]; 0.152 OD in assay [20]; 0.359 OD in assay [21]; 0.191 OD in assay [22].
